Assay results as given in PMC5750232, “RAD54 N-terminal domain is a DNA sensor that couples ATP hydrolysis with branch migration of Holliday junctions” (Nature Communications, 2018).
Changes are numbered by the printed parent chain.

How the values were obtained:
RAD54 1-142 (NTD) [1] = biological target: T1, RAD54 1-142 (NTD) (human, UniProt Q92698 1-142); assay: competition EMSA; conditions: vs 30 nM 32P-PX junction, 300 nM protein, 5 mM Mg2+, 2 mM ATP, 25 mM Tris-acetate pH 7.5, 5 mM Mg acetate, 100 ug/ml BSA, 2 mM DTT, 10% glycerol, 4 C, 45 min, 30 nM PX junction, 6% native PAGE in 0.25x TBE, scale: fold excess, PX complexes stable at 150-200-fold excess of ss- or dsDNA
T1 sequence: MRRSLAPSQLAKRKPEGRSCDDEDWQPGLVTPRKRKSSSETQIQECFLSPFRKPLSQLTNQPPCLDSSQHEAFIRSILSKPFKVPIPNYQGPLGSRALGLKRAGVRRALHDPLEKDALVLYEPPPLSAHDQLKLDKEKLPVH

RAD54 156-747 [2] = biological target: T2, RAD54 156-747 (human, UniProt Q92698 156-747); assay: competition EMSA; conditions: vs 30 nM 32P-PX junction, 100 nM protein, 5 mM Mg2+, 2 mM ATP, 25 mM Tris-acetate pH 7.5, 5 mM Mg acetate, 100 ug/ml BSA, 2 mM DTT, 10% glycerol, 4 C, 45 min, 30 nM PX junction, 6% native PAGE in 0.25x TBE, scale: fold excess of competitor giving 50% dissociation of PX complexes
T2 sequence: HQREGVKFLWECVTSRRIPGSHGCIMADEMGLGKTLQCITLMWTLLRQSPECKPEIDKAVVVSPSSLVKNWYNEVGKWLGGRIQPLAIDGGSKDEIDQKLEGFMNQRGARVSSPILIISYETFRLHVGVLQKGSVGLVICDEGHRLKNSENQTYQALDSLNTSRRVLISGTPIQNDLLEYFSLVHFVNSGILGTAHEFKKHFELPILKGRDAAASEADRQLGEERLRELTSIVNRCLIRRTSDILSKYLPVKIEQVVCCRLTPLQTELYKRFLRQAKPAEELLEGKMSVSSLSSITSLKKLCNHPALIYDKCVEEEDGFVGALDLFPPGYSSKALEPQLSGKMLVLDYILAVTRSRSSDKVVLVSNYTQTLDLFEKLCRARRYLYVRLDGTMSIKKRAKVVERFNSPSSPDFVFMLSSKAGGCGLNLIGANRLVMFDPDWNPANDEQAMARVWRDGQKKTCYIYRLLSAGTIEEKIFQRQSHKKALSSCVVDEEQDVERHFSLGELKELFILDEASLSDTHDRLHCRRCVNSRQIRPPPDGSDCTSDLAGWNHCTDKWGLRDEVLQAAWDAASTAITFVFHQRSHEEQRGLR

RAD54 1-142 (NTD) [3] = biological target: T1, RAD54 1-142 (NTD); assay: competition EMSA; vs 30 nM 32P-PX junction; 300 nM protein; 5 mM Mg2+, 2 mM ATP; 25 mM Tris-acetate pH 7.5, 5 mM Mg acetate, 100 ug/ml BSA, 2 mM DTT, 2 mM ATP, 10% glycerol, 4 C, 45 min; 30 nM PX junction; 6% native PAGE in 0.25x TBE; conditions: protein: recombinant; tags: Sumo-His, cleaved; four-way junction, 4 strands
RAD54 156-747 [4] = biological target: T2, RAD54 156-747; assay: EMSA; 100 nM protein; 5 mM Mg2+, 2 mM ATP; 25 mM Tris-acetate pH 7.5, 5 mM Mg acetate, 100 ug/ml BSA, 2 mM DTT, 2 mM ATP, 10% glycerol, 4 C, 45 min; 30 nM PX junction; 6% native PAGE in 0.25x TBE; conditions: protein: recombinant; tags: Sumo-His, cleaved; partial X junction with one ssDNA arm, 4 strands
RAD54 1-142 (NTD) [5] = biological target: T1, RAD54 1-142 (NTD); assay: EMSA; distinct complexes from 0.1 uM protein; 5 mM Mg2+, 2 mM ATP; 25 mM Tris-acetate pH 7.5, 5 mM Mg acetate, 100 ug/ml BSA, 2 mM DTT, 2 mM ATP, 10% glycerol, 4 C, 45 min; 30 nM PX junction; 6% native PAGE in 0.25x TBE; conditions: protein: recombinant; tags: Sumo-His, cleaved; partial X junction with one ssDNA arm, 4 strands
[6] = biological target: the molecule itself; assay: cross-linking; BMH (25 µM) cross-linking of the protein (1.2 µM) without DNA; 20 mM HEPES-KOH pH 7.5, 5 mM MgCl2, 5 mM EDTA, 40 mM KCl, 25 °C; 15% SDS-PAGE, silver staining

ssDNA (oligo 2)
binding signal (RAD54 1-142 (NTD) [1]): > 150 | binding signal (RAD54 156-747 [2]): 4

dsDNA (oligos 1/2)
binding signal (RAD54 1-142 (NTD) [1]): > 150

B1: X-junction (174/175/176/177) (structured_DNA)
DNA 1: GACGCTGCCGAATTCTACCAGTGCCTTGCTAGGACATCTTTGCCCACCTGCAGGTTCACCC
DNA 2: TGGGTGAACCTGCAGGTGGGCAAAGATGTCCTAGCAATGTAATCGTCAAGCTTTATGCCGTT
DNA 3: CAACGGCATAAAGCTTGACGATTACATTGCTAGGACATGCTGTCTAGAGGATCCGACTATCGA
DNA 4: ATCGATAGTCGGATCCTCTAGACAGCATGTCCTAGCAAGGCACTGGTAGAATTCGGCAGCGT
binding signal (RAD54 1-142 (NTD) [3]): ~6 fold preference for PX junction over HJ (X-junction)

B2: non-mobile PX junction (174/175/176/181) (structured_DNA)
DNA 1: B1 DNA 1
DNA 2: B1 DNA 2
DNA 3: B1 DNA 3
DNA 4: TCGATAGTCGGATCCTCTAGACAGC
binding result (RAD54 156-747 [4]): binds | binding result (RAD54 1-142 (NTD) [5]): binds

B3: RAD54_(1–142) NTD (domain or fragment, human, UniProt Q92698 1-142, looked up)
chain: T1 sequence
notes: cloned in pETHSUL; Sumo-His tag cleaved off by Sumo hydrolase; also called RAD54 NTD; source: E. coli Rosetta 2 (DE3), purified (HiTrap Ni2+, Sephacryl S-200 HR, Resource S)
stoichiometry N [6]: 2

B4: RAD54_(1–142) ^S49E (domain or fragment, human, UniProt Q92698 1-142, looked up)
chain: T1 sequence with S49E
notes: source: E. coli Rosetta 2 (DE3), purified (HiTrap Ni2+, Sephacryl S-200 HR, Resource S)
stoichiometry N [6]: 2

B5: RAD54_(1–142) ^33AAAA36 (domain or fragment, human, UniProt Q92698 1-142, looked up)
chain: T1 sequence with R33A, K34A, R35A, K36A
notes: as for B4
stoichiometry N [6]: 2
